The source of these data is patent US20250361295A1 (ANTENGENE BIOLOGICS, published 2025).

One test concerns the target T1, human LILRB1 (human, UniProt Q8NHL6 24-650).
T1 construct: whole, on cells; also called hLILRB1
The experiment in a line: FACS, 293F-hLILRB1 cells. (In general: A flow cytometer gives signals particle by particle.)

For another test, the target named is T2, human LILRA5 (human, UniProt A6NI73 42-299).
T2 construct: whole, on cells; also called hLILRA5
The experiment in a line: FACS, 293F-hLILRA5 cells.

The next test addresses T3, human LILRA2 (human, UniProt Q8N149 24-483).
T3 construct: whole, on cells; also called hLILRA2
Briefly: FACS, 293F-hLILRA2 cells.

In the next test the target is T4, human LILRA3 (human, UniProt Q8N6C8 24-439).
T4 construct: whole, on cells; also called hLILRA3
Briefly: FACS, 293F-hLILRA3 cells.

The target of test [1] is T5, human LILRB3 (human, UniProt O75022 24-631).
T5 construct: whole, on cells; also called hLILRB3
Briefly: FACS, 293F-hLILRB3 cells.

Another test concerns the target T6, human LILRB5 (human, UniProt O75023 24-590).
T6 construct: whole, on cells; also called hLILRB5
The experiment in a line: FACS, 293F-hLILRB5 cells.

In the next test the target is T7, human LILRA4 (human, UniProt P59901 24-499).
T7 construct: whole, on cells; also called hLILRA4
Briefly: FACS, 293F-hLILRA4 cells.

Another test has as its target T8, human LILRB2 (human, UniProt Q8N423 22-597).
T8 construct: whole, on cells; also called hLILRB2
The experiment in a line: FACS, 293F-hLILRB2 cells.

The target in another test is T9, human LILRA1 (human, UniProt O75019 17-489).
T9 construct: whole, on cells; also called hLILRA1
The experiment in a line: FACS, 293F-hLILRA1 cells.

For test [2], the target named is T10, human LILRB4 (human, UniProt Q8NHJ6 22-448).
T10 construct: whole, on cells; also called hLILRB4
Briefly: FACS, 293F-hLILRB4 cells. The protocol: The subcloning plates were screened by protein or cell-based ELISA, and the subclones with good binding ability were expanded to 24-wells for confirmation tests. The specificity and cross-reactivity of these subclones were confirmed with FACS analysis. […] Fluorescent dye-conjugated secondary antibody was used to detect the binding of the primary antibody with the cells. Median fluorescence intensity (MFI) was measured by FACS analysis. […]

In test [3] the target is T10, human LILRB4. The experiment in a line: cell-based or functional assay.
For test [4], the target named is T10, human LILRB4. The experiment in a line: cell-based or functional assay. This is another data set of the same source.
Test [5] concerns the target T10, human LILRB4. Briefly: cell-based or functional assay. The source holds these as a separate data set.
In a further test the target is T11, human LILRA6 protein (human, UniProt Q6PI73 24-447, limits assumed).
T11 construct: protein for ELISA; construct not described; also called hLILRA6 protein
The experiment in a line: ELISA, LILRA6 protein. (ELISA stands for enzyme-linked immunosorbent assay.)

The target in test [6] is T5, human LILRB3. Briefly: FACS, 293F-hLILRB3 cells. The protocol: (§1) The protocol for FACS analysis is described as follows: [0438] (a) Cells were harvested by centrifugation at 300 g for 3 mins. […] (b) The cells were washed for 2 times with FACS buffer by centrifuging at 300 g for 3 mins and the supernatant was discarded. [0440] (c) Cell were resuspended and seeded into assay plate (2×10⁵ cells/well) in 50 μl FACS buffer. […] Cells were incubated with antibodies at 4° C. for 1 hour. […] (d) Step (b) was repeated and the cells were resuspended with 100 μl diluted 2nd antibody, incubated at 4° C. for 1 hour in the dark. [0442] (e) Step (b) was repeated and the cells were resuspended with 100 μl FACS buffer. The cells were kept in dark for FACS analysis.
The source holds these as a separate data set.

The target in test [7] is T10, human LILRB4. Briefly: FACS, 293F-hLILRB4 cells. The protocol:
as §1
This is another data set of the same source.

T4 sequence (Q8N6C8 24-439): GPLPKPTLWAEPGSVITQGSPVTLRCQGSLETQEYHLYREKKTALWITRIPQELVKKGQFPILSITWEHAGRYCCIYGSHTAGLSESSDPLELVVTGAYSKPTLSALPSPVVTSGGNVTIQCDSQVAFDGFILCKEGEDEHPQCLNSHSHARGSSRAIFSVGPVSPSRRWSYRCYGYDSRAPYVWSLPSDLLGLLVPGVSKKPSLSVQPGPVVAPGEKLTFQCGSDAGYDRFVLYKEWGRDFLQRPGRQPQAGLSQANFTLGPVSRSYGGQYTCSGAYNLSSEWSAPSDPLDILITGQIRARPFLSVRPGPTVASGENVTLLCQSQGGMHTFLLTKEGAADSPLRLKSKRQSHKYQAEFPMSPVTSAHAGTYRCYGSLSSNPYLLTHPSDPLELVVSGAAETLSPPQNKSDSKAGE
T1 sequence (Q8NHL6 24-650): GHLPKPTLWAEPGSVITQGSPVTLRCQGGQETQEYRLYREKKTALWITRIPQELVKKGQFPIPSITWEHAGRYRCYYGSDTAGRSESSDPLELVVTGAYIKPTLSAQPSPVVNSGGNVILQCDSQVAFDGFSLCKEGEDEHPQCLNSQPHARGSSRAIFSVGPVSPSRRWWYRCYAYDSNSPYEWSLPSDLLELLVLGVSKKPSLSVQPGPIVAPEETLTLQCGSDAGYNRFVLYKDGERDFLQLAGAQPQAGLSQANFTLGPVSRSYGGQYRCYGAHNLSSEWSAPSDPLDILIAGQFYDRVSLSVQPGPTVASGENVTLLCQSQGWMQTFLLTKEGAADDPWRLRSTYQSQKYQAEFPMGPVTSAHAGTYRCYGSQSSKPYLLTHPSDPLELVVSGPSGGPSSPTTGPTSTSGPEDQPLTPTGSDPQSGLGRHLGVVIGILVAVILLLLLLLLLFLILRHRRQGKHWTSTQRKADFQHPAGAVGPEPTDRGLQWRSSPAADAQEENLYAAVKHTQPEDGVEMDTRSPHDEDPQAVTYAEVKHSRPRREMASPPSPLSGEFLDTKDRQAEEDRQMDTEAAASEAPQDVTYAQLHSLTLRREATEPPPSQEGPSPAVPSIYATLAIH
T8 sequence (Q8N423 22-597): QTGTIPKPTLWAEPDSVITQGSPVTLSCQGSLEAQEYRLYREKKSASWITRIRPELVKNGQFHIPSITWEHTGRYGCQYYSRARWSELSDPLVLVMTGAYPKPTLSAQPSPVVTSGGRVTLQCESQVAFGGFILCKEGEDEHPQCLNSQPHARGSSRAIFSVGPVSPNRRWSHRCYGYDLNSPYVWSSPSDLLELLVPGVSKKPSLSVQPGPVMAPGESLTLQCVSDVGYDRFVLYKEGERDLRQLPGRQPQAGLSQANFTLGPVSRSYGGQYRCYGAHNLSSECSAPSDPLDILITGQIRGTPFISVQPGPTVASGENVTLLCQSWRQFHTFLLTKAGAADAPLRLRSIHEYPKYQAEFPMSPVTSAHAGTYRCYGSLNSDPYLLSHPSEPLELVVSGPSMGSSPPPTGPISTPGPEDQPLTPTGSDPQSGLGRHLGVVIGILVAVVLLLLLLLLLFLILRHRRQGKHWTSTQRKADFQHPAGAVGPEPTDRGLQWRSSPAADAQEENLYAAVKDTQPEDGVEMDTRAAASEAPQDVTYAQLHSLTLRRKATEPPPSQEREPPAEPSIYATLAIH
T3 sequence (Q8N149 24-483): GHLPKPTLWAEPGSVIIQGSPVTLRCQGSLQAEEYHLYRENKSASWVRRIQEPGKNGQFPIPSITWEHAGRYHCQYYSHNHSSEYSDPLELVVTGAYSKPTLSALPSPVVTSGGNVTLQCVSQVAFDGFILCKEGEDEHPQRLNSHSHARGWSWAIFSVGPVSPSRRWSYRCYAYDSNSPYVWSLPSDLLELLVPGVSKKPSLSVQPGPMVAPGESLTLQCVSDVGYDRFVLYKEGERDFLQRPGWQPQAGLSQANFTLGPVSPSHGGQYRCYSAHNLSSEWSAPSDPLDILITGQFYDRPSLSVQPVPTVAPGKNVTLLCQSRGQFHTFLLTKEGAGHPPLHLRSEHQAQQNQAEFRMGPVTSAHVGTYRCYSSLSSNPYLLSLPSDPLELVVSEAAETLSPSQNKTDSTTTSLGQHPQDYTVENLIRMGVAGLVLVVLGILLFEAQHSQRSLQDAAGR
T9 sequence (O75019 17-489): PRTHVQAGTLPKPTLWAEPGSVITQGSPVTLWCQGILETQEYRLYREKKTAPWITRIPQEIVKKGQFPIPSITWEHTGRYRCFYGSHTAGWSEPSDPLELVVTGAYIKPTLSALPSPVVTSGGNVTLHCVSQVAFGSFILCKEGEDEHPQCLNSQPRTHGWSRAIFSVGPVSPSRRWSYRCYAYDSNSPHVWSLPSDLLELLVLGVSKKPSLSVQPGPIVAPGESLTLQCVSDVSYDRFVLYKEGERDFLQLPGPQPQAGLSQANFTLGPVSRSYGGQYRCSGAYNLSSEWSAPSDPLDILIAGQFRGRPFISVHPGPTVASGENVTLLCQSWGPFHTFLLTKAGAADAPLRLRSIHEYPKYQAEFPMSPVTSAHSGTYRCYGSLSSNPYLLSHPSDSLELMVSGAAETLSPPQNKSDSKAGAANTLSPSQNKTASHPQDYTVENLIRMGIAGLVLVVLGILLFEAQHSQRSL
T2 sequence (A6NI73 42-299): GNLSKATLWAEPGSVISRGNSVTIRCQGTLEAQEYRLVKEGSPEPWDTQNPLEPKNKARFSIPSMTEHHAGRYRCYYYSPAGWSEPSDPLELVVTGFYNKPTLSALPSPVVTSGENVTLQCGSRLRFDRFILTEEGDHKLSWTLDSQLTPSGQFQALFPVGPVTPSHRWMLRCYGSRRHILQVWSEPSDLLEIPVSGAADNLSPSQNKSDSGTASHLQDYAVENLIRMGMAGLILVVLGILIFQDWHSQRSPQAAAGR
T7 sequence (P59901 24-499): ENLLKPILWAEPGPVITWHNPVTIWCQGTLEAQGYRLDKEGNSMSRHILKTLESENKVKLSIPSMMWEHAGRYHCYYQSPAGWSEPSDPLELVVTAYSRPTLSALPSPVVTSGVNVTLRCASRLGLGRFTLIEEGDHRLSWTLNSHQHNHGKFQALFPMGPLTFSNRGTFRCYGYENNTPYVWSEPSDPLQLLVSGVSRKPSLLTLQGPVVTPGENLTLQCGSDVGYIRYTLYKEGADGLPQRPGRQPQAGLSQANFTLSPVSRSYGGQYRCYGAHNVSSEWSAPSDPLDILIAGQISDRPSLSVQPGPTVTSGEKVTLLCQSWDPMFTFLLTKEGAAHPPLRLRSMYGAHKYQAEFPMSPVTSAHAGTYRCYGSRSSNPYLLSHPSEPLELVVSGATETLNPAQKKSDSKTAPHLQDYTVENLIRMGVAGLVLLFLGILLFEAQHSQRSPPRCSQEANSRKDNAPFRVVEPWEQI
T6 sequence (O75023 24-590): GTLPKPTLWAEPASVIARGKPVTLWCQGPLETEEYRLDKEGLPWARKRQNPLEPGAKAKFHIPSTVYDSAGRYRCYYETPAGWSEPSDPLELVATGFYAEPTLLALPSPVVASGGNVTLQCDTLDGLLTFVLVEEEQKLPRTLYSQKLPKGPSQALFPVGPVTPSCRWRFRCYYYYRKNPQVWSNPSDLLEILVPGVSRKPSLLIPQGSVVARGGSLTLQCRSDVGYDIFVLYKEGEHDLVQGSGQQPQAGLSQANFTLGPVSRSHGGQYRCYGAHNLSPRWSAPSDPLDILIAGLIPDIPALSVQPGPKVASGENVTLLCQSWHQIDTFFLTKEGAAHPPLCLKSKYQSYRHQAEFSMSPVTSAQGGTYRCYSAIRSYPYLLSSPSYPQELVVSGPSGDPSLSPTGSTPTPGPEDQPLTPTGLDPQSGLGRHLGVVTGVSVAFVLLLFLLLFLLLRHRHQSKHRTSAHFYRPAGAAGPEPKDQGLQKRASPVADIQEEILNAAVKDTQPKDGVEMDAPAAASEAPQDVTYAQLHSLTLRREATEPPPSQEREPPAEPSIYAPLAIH
T5 sequence (O75022 24-631): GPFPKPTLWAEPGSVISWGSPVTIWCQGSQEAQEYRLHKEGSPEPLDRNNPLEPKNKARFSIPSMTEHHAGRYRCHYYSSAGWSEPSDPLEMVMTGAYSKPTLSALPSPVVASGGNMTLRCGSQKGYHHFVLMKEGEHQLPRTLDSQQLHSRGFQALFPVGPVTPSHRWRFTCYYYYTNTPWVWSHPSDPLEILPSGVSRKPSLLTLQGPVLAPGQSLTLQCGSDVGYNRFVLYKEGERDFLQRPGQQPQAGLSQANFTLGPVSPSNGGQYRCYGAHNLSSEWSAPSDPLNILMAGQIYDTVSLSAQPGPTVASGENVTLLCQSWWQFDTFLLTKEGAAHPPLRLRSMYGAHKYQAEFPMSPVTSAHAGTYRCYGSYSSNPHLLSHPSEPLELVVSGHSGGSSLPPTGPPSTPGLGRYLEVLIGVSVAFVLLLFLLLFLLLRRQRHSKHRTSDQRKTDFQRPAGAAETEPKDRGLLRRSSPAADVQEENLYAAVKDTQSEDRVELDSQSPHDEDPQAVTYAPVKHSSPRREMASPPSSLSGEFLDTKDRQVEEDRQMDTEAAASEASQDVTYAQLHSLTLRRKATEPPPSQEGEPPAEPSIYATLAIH
T11 sequence (Q6PI73 24-447 limits assumed): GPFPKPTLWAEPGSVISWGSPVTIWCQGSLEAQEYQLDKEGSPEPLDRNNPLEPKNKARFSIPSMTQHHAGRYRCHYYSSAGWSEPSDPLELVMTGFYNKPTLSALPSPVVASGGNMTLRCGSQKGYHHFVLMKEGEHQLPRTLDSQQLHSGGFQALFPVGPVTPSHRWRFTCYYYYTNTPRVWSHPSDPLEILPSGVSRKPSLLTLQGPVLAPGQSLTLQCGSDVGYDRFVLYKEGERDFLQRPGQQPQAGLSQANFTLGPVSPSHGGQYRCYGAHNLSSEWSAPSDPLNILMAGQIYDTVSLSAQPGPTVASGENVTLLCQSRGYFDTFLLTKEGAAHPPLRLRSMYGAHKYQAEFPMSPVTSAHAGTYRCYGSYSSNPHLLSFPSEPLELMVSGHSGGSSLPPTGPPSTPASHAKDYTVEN

B1: 44-F10-B6-D4 (antibody, V domains shown)
VH: EVHLVESGGGLVKPGGSLKLSCAASGFTFSSYAMSWVRQTPEKRLEWVATISSGGSYIYYPDSVKGRFTISRDNAKNTLYLQMSSLRSEDTAMYYCARQDWDGGDYYAMDYWGQGTSVTVSS
VL: DIVMTQSPSSLAVSAGEKVTMSCKSSQSVLYSSNQKNFLAWYQQKPGQSPKLLIYWASTRESGVPDRFTGSGSGTDFTLTISSVQAEDLAVYYCHQYLSSLTFGAGTKLELK
notes: mouse monoclonal hybridoma antibody
For B1, the MFI turned out to be 38.4 MFI with human LILRB1; 26.8 MFI with human LILRA5; 24.8 MFI with human LILRA2; 22.5 MFI with human LILRA3; 31.6 MFI with human LILRB3 [1]; 26.6 MFI with human LILRB5. In addition, the MFI is 24.4 MFI with human LILRA4, 38.2 MFI with human LILRB2, 25.6 MFI with human LILRA1 and 84.9 MFI with human LILRB4 [2].

B2: 7-B4-C1-C9 (antibody, V domains shown)
VH: EVQLQQSGTELVKPGASVKLSCKASGYTFTNYWMHWVKQRPGQGLEWIGEINPSNGRTNYNEKFKTKATLTVDKSSSTAYMQLSSLTSEDSAVYYCARSTYYGYDWYFDVWGAGTTVTVSS
VL: DIVLTQSPSSMYASLGERVTITCKASQDINSYLSWFQQKPGKSPKTLIYRANRLLDGVPSRFSGGGSGQDYSLTISSLEHEDMGIYYCLQCDEFPHTFGGGTKLEIK
notes: as for B1
Take B2: the MFI in the test with human LILRB1 was determined as 27.7 MFI; in the test with human LILRA5 it was 28.2 MFI; with human LILRA2, 21.6 MFI; with human LILRA3, 25.2 MFI; in the test with human LILRB3 [1] it was 26.1 MFI; in the test with human LILRB5, 17.8 MFI. The MFI with human LILRA4 worked out at 26.2 MFI; in the test with human LILRB2 it was 32.2 MFI; with human LILRA1, 27.5 MFI; with human LILRB4 [2], 3950 MFI.

B3: ch2-H1-D7-E5-D5 (antibody, V domains shown)
VH: EVHLVESGGGLVQPGGSRKLSCAASGFTFSSFGMHWVRQPPEKGLEWVAYISSGSSSIYYADTVKGRFTISRDNPKNTLFLQMTSLRSEDTAMYYCARGTGTGAMDYWGQGTSVTVSS
VL: DIQMTQTTSSLSASLGDRVTISCRTSQDISNYLNWYQQKPDGTVKLLIYYTSKLHSGVPSRFSGSGSGTDYSLTISNLDQEDIATYFCQQGNTLPWTFGGGTKLEIK
For orientation: EC50 means the concentration giving half of the maximal effect. The low end stands for a more potent agent, the high end for a less potent agent. With B3, in the test with human LILRB4 [3], the “ADCP (%) at 133.3 nM, macrophages and MV-4-11 cells” value was determined as 27.9%. Also, in the test with human LILRB4 [4], the “EC50 (nM), ADCC on THP-1 cells” value was 7.34 nM and the “Max cell cytotoxicity (%), ADCC on THP-1 cells” value is 39.6%. Besides, in the test with human LILRB4 [5], the “FcγR stimulation (TNF-α, pg/mL)” value came to 325 pg/mL and the “Fold change (Compared to isotype)” value was determined as 10.3 fold. Besides, in the test with human LILRA6 protein, the binding result is “no binding”. For the same molecule, the binding result with human LILRB3 [6] is “no binding (tested: up to 66.67 nM)”. In the test with human LILRB4 [7], the response was half-maximal at 1.6 nM (EC50) and the “Max MFI” value amounted to 38300 MFI.

B4: 36-F4-H1-D9 (antibody, V domains shown)
VH: EVKLLESGGGLVQPGGSLKLSCAASGFDFSRYWMIWVRQAPEKGLEWIGEINPDSSTINYTPSLKDKFIISRDNAKNTLYLQMSKVRSEDTALYYCARPYYRYDVGYFDVWGAGTTVTVSS
VL: DIVMTQAPKVLLVSAGDRVTISCKASQSVSNAVVWYQQKPGQSPKLLIFYASNRYTGVPDRFTGSGYGTDFTFSISTVQAEDLAVYFCQQDYSSPWTFGGGTKLEIK
notes: as for B1
B4: the MFI is 25.7 MFI with human LILRB1; 20.3 MFI in the test with human LILRA5; 16.5 MFI with human LILRA2; 18.6 MFI with human LILRA3; 23.5 MFI in the test with human LILRB3 [1]; 17 MFI with human LILRB5. Also, the MFI with human LILRA4 turned out to be 20.7 MFI; in the test with human LILRB2 it was 26.5 MFI; with human LILRA1 it was 22.1 MFI; with human LILRB4 [2], 898 MFI.

B5: 48-E11-H7-B5 (antibody, V domains shown)
VH: EVQLVESGGGLVKPGGSLKLSCAASGFTFSSYAMSWVRQTPEKRLEWVASITIGDDTYYPDSVKGRFTISRDHAKNILYLQVSSLRSEDTAMYSCARGVNSYGSSYRYFDVWGAGTTVTVSS
VL: DIVMTQSHKFMSTSVGDRVSITCKASQDVSTAVAWYQQKPGQSPKLLIYWASTRHTGVPDRFTGSGSGTDYTLTISSVQAEDLALYYCQQHYSIPFTFGAGTKLEK
notes: as for B1
Regarding B5, the MFI in the test with human LILRB1 was determined as 27.3 MFI; in the test with human LILRA5, 359 MFI; with human LILRA2, 22.6 MFI; with human LILRA3, 24.1 MFI; in the test with human LILRB3 [1], 26.7 MFI; in the test with human LILRB5, 18.9 MFI. The MFI with human LILRA4 amounted to 24.3 MFI; with human LILRB2, 45.8 MFI; with human LILRA1, 25.1 MFI; with human LILRB4 [2], 2760 MFI.

B6: 2-H8-C9-F7-E2 (antibody, V domains shown)
VH: EVQLQQSGAELVKPGASVKLSCKASGYTFTNYWMHWVKQRPGQGLEWIGEINPSNGRTNYNEKFKSKATLTVDKSSSTAYMQLSSLTSEDSAVYYCARGSLTTVVPFDYWGQGTTLTVSS
VL: DIQMTQTPSSLSASLGGKVTITCKASQDINNYIAWYQHKPGKGPRLLIHYTSTLQPGIPSRFSGSGSGRDYSFSISNLEPEDIATYFCLQYDILLTFGGGTKLEK
notes: as for B1
B6: the MFI amounted to 25.4 MFI with human LILRB1; 22.6 MFI in the test with human LILRA5; 19.7 MFI with human LILRA2; 21.7 MFI in the test with human LILRA3; 26.7 MFI with human LILRB3 [1]; 21.6 MFI with human LILRB5. In addition, the MFI in the test with human LILRA4 worked out at 23 MFI; in the test with human LILRB2, 28.8 MFI; with human LILRA1, 22.6 MFI; in the test with human LILRB4 [2], 1710 MFI.

B7: 4-E6-E4-B12 (antibody, V domains shown)
VH: EVQLKESGAELVKPGASVKLSCKASGYTFTSHWMHWVKQRPGQGLEWIGEINPSNGRTNYNEKFTSKATLTVDQSSSTAYMQLSSLTSEDSAVYYCARGNLTTVVPFDYWGQGTALTVSS
VL: DIVMTQSPSSLSASLGGKVTITCKASQDINKFIAWYQHKPGKGPRLLIHFTSTLQPGIPSRFSGSGSGRDYSFSISNLEPEDIATYFCLQYDLLLTFGGGTKLEIK
notes: as for B1
As for B7, the MFI in the test with human LILRB1 was 23.6 MFI; with human LILRA5 it was 32.6 MFI; with human LILRA2, 21.9 MFI; in the test with human LILRA3, 23.7 MFI; with human LILRB3 [1], 27.1 MFI; with human LILRB5, 21.4 MFI. Further, the MFI with human LILRA4 was determined as 23.2 MFI; with human LILRB2, 58 MFI; in the test with human LILRA1, 24.4 MFI; with human LILRB4 [2] it was 1530 MFI.

B8: 42-C8-A12-F3-D11 (antibody, V domains shown)
VH: EVHLVESGGDLVKPGGSLKLSCAASGFTFSSHGMSWVRQTPDKRLEWVATISSGGIYTYHPDSVKGRFSISRDNAKKTLYLQMSSLKSEDTGIYYCTRGQVGNWYFDVWGAGTTVTVSS
VL: DIVITQSPAIMSASPGEKVTINCSASSSVSYMHWFQQTPGTSPKLWIYSTSNLASGVPARFSGSGSGTFYSLTISRMEAEDAATYYCQQRSSYPLTFGAGTKLELK
notes: as for B1
On to B8, for which the MFI turned out to be 29.6 MFI with human LILRB1; 27.9 MFI in the test with human LILRA5; 28.1 MFI in the test with human LILRA2; 24.5 MFI with human LILRA3; 602 MFI with human LILRB3 [1]; 22.2 MFI with human LILRB5. Also, the MFI with human LILRA4 came out at 27.2 MFI; with human LILRB2 it was 34.5 MFI; in the test with human LILRA1 it was 27.3 MFI; with human LILRB4 [2] it was 1290 MFI.

B9: 25-G9-G4-C12 (antibody, V domains shown)
VH: EVQLVESGGDLVKPGGSLKLSCAASGFTFSSHGMSWVRQTPDKRLEWVATINSGGYYTYYPDSVKGRFTISRDNAKNTLYLQMSSLKSEDTAMYYCARGQLGNWYFDVWGAGTTVTVSS
VL: DIVMTQSPAIMSASPGEKVTITCSASSSVSYMHWFQQKPGTSPKLWIYSTSNLASGVPARFSGSGSGTSYSLTISRMEAEDAATYYCQQRSSYPLTFGAGTKLELK
notes: as for B1
Regarding B9, the MFI with human LILRB1 was determined as 26 MFI; in the test with human LILRA5, 25.3 MFI; with human LILRA2 it was 21.7 MFI; with human LILRA3, 18.6 MFI; with human LILRB3 [1], 25.2 MFI; in the test with human LILRB5, 22.9 MFI. Moreover, the MFI with human LILRA4 was found to be 22.7 MFI; with human LILRB2, 32.8 MFI; with human LILRA1, 24.3 MFI; in the test with human LILRB4 [2], 383 MFI.
